Data reported in article doi:10.1101/2023.03.30.534746.

Tests used:
[1] = target: IRE1α LD 312TLPL315-GSGS mutant (human) (UniProt O75460); experiment: AUC
[2] = target: IRE1α LD 352LNYL355-GSGS mutant (human) (UniProt O75460); experiment: AUC

Row | Substance | stoichiometry N [1] | stoichiometry N [2]
1 | IRE1α LD 312TLPL315-GSGS mutant (from UniProt O75460 24-443) (domain or fragment) | 2 | 
2 | IRE1α LD 352LNYL355-GSGS mutant (from UniProt O75460 24-443) (domain or fragment) |  | 2
